For three molecules, Kd results are on record in paper doi:10.1101/2024.01.05.574393.

B1: FLNCd24 (domain 24 of filamin C, residues 2630-2724), wild type (domain or fragment)
chain: GSKFSSDASKVVTRGPGLSQAFVGQKNSFTVDCSKAGTNMMMVGVHGPKTPCEEVYVKHMGNRVYNVTYTVKEKGDYILIVKWGDESVPGSPFKVKV
B2: FLNCd24 T2677D (phospho-mimic, residues 2630-2724) (domain or fragment)
chain: GSKFSSDASKVVTRGPGLSQAFVGQKNSFTVDCSKAGTNMMMVGVHGPKDPCEEVYVKHMGNRVYNVTYTVKEKGDYILIVKWGDESVPGSPFKVKV
B3: FLNCd24 Y2683E (phospho-mimic, residues 2630-2724) (domain or fragment)
chain: GSKFSSDASKVVTRGPGLSQAFVGQKNSFTVDCSKAGTNMMMVGVHGPKTPCEEVEVKHMGNRVYNVTYTVKEKGDYILIVKWGDESVPGSPFKVKV

This test deals with HSPB7ACD (α-crystallin domain, residues 78-162 of isoform 2) (human). In words: native MS.
On to B1, for which the dissociation constant (Kd) is 3.9 nM.

Take B2: the Kd is 14.1 nM.

Molecule B3 gave a Kd of 2.2 nM.

Usually Kd stands for the equilibrium constant for the complex coming apart.
